In the Human Domainome abundance scans (Beltran et al. 2025):
± gives the uncertainty stated by the source.

B1: Nanos homolog 2, residues 63 to 115; numbered along this chain, P60321 (parent)
chain: CNFCKHNGESRHVYSSHQLKTPDGVVVCPILRHYVCPVCGATGDQAHTLKYCP

Variants of: B1
Experiment: abundance fitness (aPCA) (normalised: wild type 0, dead -1); higher = more abundant; growth selection in yeast, the domain comes from the species named
Conditions: Homo sapiens

Variant	abundance fitness
H33E	-0.082 ± 0.12
H33N	0.218 ± 0.093
H33K	-0.013 ± 0.11
H33W	-0.086 ± 0.09
H33I	-0.435 ± 0.19
H33F	-0.534 ± 0.16
H33M	-0.028 ± 0.09
H33A	0.046 ± 0.075
H33C	-0.013 ± 0.11
H33P	-0.319 ± 0.084
H33T	0.068 ± 0.1
H33R	0.036 ± 0.05
H33D	0.127 ± 0.1
H33V	0.033 ± 0.069
H33Y	-0.335 ± 0.11
Q45M	0.119 ± 0.13
Q45N	0.085 ± 0.2
Q45G	-0.003 ± 0.068
Q45F	-0.043 ± 0.26
Q45E	-0.186 ± 0.09
Q45A	-0.069 ± 0.077
Q45V	-0.047 ± 0.067
Q45I	-0.214 ± 0.14
Q45T	-0.074 ± 0.11

Variant	abundance fitness
Q45L	-0.037 ± 0.094
Q45P	-0.429 ± 0.15
Q45S	0.039 ± 0.091
Q45K	0.024 ± 0.11
Q45D	-0.015 ± 0.12
Q45W	-0.368 ± 0.18
Q45C	-0.186 ± 0.19
I30N	0.039 ± 0.18
I30W	-0.346 ± 0.11
I30C	-0.304 ± 0.15
I30P	-0.249 ± 0.091
I30H	0.041 ± 0.2
I30F	-0.524 ± 0.2
I30E	-0.108 ± 0.13
I30A	0.084 ± 0.1
I30D	-0.345 ± 0.28
I30M	0.015 ± 0.11
I30Q	-0.05 ± 0.12
I30L	-0.033 ± 0.084
I30S	0.082 ± 0.06
I30K	0.127 ± 0.089
I30T	0.111 ± 0.098
I30G	-0.081 ± 0.065
C36A	-0.416 ± 0.1

Variant	abundance fitness
C36E	-0.627 ± 0.1
C36V	-0.93 ± 0.098
C36F	-0.888 ± 0.13
C36W	-1.16 ± 0.43
C36D	-0.444 ± 0.11
C36I	-0.976 ± 0.36
C36G	-0.826 ± 0.086
C36P	-0.74 ± 0.24
C36R	-0.658 ± 0.083
C36H	-0.623 ± 0.31
C36Y	-0.726 ± 0.23
C36M	-0.75 ± 0.094
C36S	-0.699 ± 0.094
C36T	-0.804 ± 0.29
C36N	-0.675 ± 0.11
C36L	-1 ± 0.11
C36Q	-0.471 ± 0.22
Y34N	-0.134 ± 0.091
Y34L	0.042 ± 0.068
Y34Q	0.013 ± 0.099
Y34S	-0.097 ± 0.08
Y34K	-0.03 ± 0.14
Y34C	-0.066 ± 0.06
Y34V	-0.033 ± 0.073

Variant	abundance fitness
Y34A	-0.071 ± 0.07
Y34G	-0.229 ± 0.051
Y34D	-0.32 ± 0.093
Y34W	-0.066 ± 0.12
Y34T	0.036 ± 0.1
Y34I	-0.107 ± 0.15
Y34M	-0.092 ± 0.11
Y34H	0.073 ± 0.12
Y34R	0.046 ± 0.068
Y34F	-0.011 ± 0.091
Y34P	-0.6 ± 0.14
V35C	-0.253 ± 0.089
V35L	-0.234 ± 0.097
V35D	-0.398 ± 0.1
V35F	-0.676 ± 0.2
V35K	-0.076 ± 0.1
V35R	-0.1 ± 0.081
V35N	-0.254 ± 0.16
V35E	-0.076 ± 0.078
V35A	-0.209 ± 0.085
V35P	-0.341 ± 0.094
V35W	-0.445 ± 0.12
V35G	-0.306 ± 0.071
V35M	-0.51 ± 0.2

Variant	abundance fitness
V35Y	-0.086 ± 0.16
V35H	0.293 ± 0.2
V26E	-0.574 ± 0.13
V26Y	-0.427 ± 0.22
V26I	0.033 ± 0.084
V26T	-0.111 ± 0.077
V26A	-0.369 ± 0.11
V26S	-0.322 ± 0.092
V26M	-0.292 ± 0.2
V26F	-0.284 ± 0.14
V26D	-0.509 ± 0.16
V26N	-0.456 ± 0.17
V26R	-0.523 ± 0.087
V26K	-0.031 ± 0.15
V26P	-0.359 ± 0.17
V26L	-0.036 ± 0.083
V26C	-0.032 ± 0.12
V26Q	-0.305 ± 0.081
V26W	-0.46 ± 0.071
V26G	-0.441 ± 0.057
C39L	-0.607 ± 0.094
C39A	-0.986 ± 0.46
C39W	-0.708 ± 0.11
C39E	-0.484 ± 0.12

Variant	abundance fitness
C39I	-0.739 ± 0.39
C39D	-0.837 ± 0.32
C39Y	-0.781 ± 0.073
C39V	-0.702 ± 0.21
C39T	-0.58 ± 0.08
C39R	-0.696 ± 0.11
C39Q	-0.428 ± 0.18
C39G	-0.731 ± 0.13
C39H	-0.597 ± 0.22
C39K	-0.608 ± 0.11
C39P	-0.85 ± 0.24
C39F	-0.497 ± 0.36
C39M	-0.717 ± 0.2
D44S	-0.294 ± 0.097
D44C	-0.391 ± 0.12
D44Y	-0.55 ± 0.14
D44T	-0.14 ± 0.075
D44N	-0.047 ± 0.1
D44L	-0.453 ± 0.084
D44V	-0.299 ± 0.08
D44Q	-0.25 ± 0.11
D44I	-0.457 ± 0.25
D44G	-0.048 ± 0.059
D44P	-0.274 ± 0.1

Variant	abundance fitness
D44F	0.009 ± 0.15
D44W	-0.429 ± 0.11
D44H	-0.514 ± 0.23
D44M	-0.271 ± 0.063
D44R	-0.403 ± 0.084
D44E	-0.334 ± 0.14
V38Q	0.091 ± 0.1
V38M	-0.003 ± 0.061
V38F	0.084 ± 0.083
V38C	-0.099 ± 0.18
V38N	-0.012 ± 0.13
V38K	0.314 ± 0.089
V38E	0.287 ± 0.1
V38T	0.016 ± 0.11
V38R	0.172 ± 0.06
V38D	-0.184 ± 0.17
V38S	0.074 ± 0.084
V38I	-0.16 ± 0.13
V38A	0.001 ± 0.1
V38G	0.082 ± 0.066
V38H	-0.222 ± 0.16
V38W	-0.222 ± 0.11
L31T	-0.207 ± 0.13
L31Y	-0.66 ± 0.24

Variant	abundance fitness
L31S	-0.433 ± 0.09
L31A	-0.117 ± 0.069
L31G	-0.443 ± 0.081
L31V	-0.284 ± 0.066
L31P	-0.444 ± 0.15
L31I	-0.16 ± 0.17
L31R	-0.415 ± 0.074
L31M	-0.153 ± 0.11
L31K	-0.271 ± 0.11
L31D	-0.622 ± 0.23
L31N	-0.547 ± 0.18
L31H	-0.271 ± 0.15
L31C	-0.416 ± 0.14
L31Q	-0.349 ± 0.097
L31E	-0.339 ± 0.078
L31W	-0.566 ± 0.15
G43P	-0.718 ± 0.079
G43D	-0.125 ± 0.1
G43C	-0.421 ± 0.13
G43V	-0.679 ± 0.092
G43L	-0.494 ± 0.08
G43H	-0.701 ± 0.3
G43N	-0.35 ± 0.23
G43T	-0.467 ± 0.079

Variant	abundance fitness
G43E	-0.187 ± 0.12
G43Y	-0.703 ± 0.11
G43A	-0.138 ± 0.075
G43R	-0.135 ± 0.09
G43M	-0.414 ± 0.07
G43I	-0.744 ± 0.17
G43Q	-0.176 ± 0.081
P29L	-0.978 ± 0.15
P29G	-0.588 ± 0.089
P29R	-0.503 ± 0.06
P29Y	-0.721 ± 0.29
P29N	-0.779 ± 0.4
P29D	-0.543 ± 0.15
P29E	-0.195 ± 0.14
P29C	-1.07 ± 0.12
P29Q	-0.38 ± 0.17
P29A	-0.786 ± 0.25
P29M	-1.05 ± 0.16
P29K	-0.364 ± 0.074
P29W	-1.07 ± 0.35
P29S	-0.65 ± 0.12
C28F	-0.91 ± 0.18
C28S	-0.501 ± 0.085
C28G	-0.535 ± 0.058

Variant	abundance fitness
C28W	-1.03 ± 0.26
C28D	-0.643 ± 0.21
C28T	-0.586 ± 0.16
C28V	-0.852 ± 0.17
C28Y	-0.815 ± 0.28
C28E	-0.733 ± 0.13
C28M	-0.524 ± 0.11
C28A	-0.714 ± 0.12
C28P	-0.664 ± 0.18
C28Q	-0.428 ± 0.2
C28L	-0.962 ± 0.078
C28R	-0.752 ± 0.09
R32Q	-0.446 ± 0.13
R32P	-0.715 ± 0.14
R32V	-0.473 ± 0.06
R32C	-0.662 ± 0.14
R32D	-0.376 ± 0.14
R32K	-0.204 ± 0.14
R32N	-0.522 ± 0.19
R32L	-0.427 ± 0.09
R32F	-0.514 ± 0.17
R32T	-0.204 ± 0.065
R32W	-0.419 ± 0.1
R32G	-0.352 ± 0.069

Variant	abundance fitness
R32M	-0.18 ± 0.11
R32I	-0.434 ± 0.064
R32S	-0.225 ± 0.09
R32A	-0.241 ± 0.083
R32E	-0.49 ± 0.11
R32H	-0.368 ± 0.16
V25T	0.004 ± 0.071
V25Y	-0.092 ± 0.096
V25W	-0.459 ± 0.13
T42E	-0.128 ± 0.12
T42M	-0.153 ± 0.13
T42C	-0.223 ± 0.096
T42A	-0.162 ± 0.078
T42Q	-0.023 ± 0.11
T42I	-0.342 ± 0.074
T42W	-0.37 ± 0.095
T42N	-0.23 ± 0.14
T42D	-0.24 ± 0.12
T42S	-0.116 ± 0.067
T42L	-0.294 ± 0.068
T42H	-0.481 ± 0.23
T42P	-0.895 ± 0.24
T42F	-0.395 ± 0.39
T42R	-0.151 ± 0.07

Variant	abundance fitness
V27C	-0.014 ± 0.091
V27E	-0.148 ± 0.12
V27D	-0.09 ± 0.13
V27T	0.02 ± 0.072
V27L	-0.075 ± 0.11
V27I	0.053 ± 0.13
V27H	0.096 ± 0.14
V27F	-0.049 ± 0.12
V27M	-0.069 ± 0.17
V27G	-0.085 ± 0.082
V27R	0.037 ± 0.094
V27W	-0.144 ± 0.14
V27P	-0.434 ± 0.09
V27K	-0.132 ± 0.15
V27Y	-0.128 ± 0.13
V27Q	-0.349 ± 0.28
V27A	-0.074 ± 0.087
G40A	-0.08 ± 0.12
G40C	-0.023 ± 0.073
G40K	0.183 ± 0.099
G40H	0.051 ± 0.16
G40F	-0.012 ± 0.23
G40P	-0.595 ± 0.079
G40Y	-0.168 ± 0.15

Variant	abundance fitness
G40I	-0.394 ± 0.12
G40T	-0.063 ± 0.12
G40Q	-0.172 ± 0.23
G40M	-0.107 ± 0.098
G40E	0.13 ± 0.15
G40N	-0.134 ± 0.21
G40D	0.343 ± 0.16
G40S	-0.052 ± 0.093
G40R	0.021 ± 0.066
A41L	-0.032 ± 0.089
A41D	-0.287 ± 0.15
A41P	-0.593 ± 0.11
A41S	-0.014 ± 0.069
A41V	-0.102 ± 0.068
A41I	-0.574 ± 0.25
A41C	0.014 ± 0.1
A41E	-0.032 ± 0.062
A41Y	-0.184 ± 0.089
A41R	-0.251 ± 0.091
A41G	-0.08 ± 0.074
A41F	-0.379 ± 0.081
A41W	-0.383 ± 0.14
A41T	-0.089 ± 0.099
A41K	-0.173 ± 0.11

Variant	abundance fitness
A41H	-0.068 ± 0.15
A41Q	0.023 ± 0.14
A41M	-0.05 ± 0.082
P37D	0.07 ± 0.15
P37Q	0.324 ± 0.2
P37W	-0.642 ± 0.15
P37N	0.078 ± 0.087
P37I	-0.196 ± 0.13
P37M	-0.101 ± 0.12
P37S	0.156 ± 0.1
P37Y	-0.305 ± 0.41
P37F	-0.306 ± 0.12
P37T	-0.09 ± 0.11
P37L	-0.214 ± 0.098
P37K	0.139 ± 0.081
P37C	-0.34 ± 0.12
P37A	-0.231 ± 0.12
P37V	-0.072 ± 0.066
P37H	-0.034 ± 0.11
P37R	0.088 ± 0.085
P37G	-0.046 ± 0.059
P37E	0.149 ± 0.11
